Numbering of substitutions follows the chain as printed.

These results are taken from patent US20250197491A1 (published 2025).

B1: Antibody 2 (antibody, V domains shown)
VH: QVQLVESGGDLVKPGGSLRLSCAASGFTFRDYYMSWIRQAPGKGLEWVSYISPSGSTIFYADSVKGRFTISRDNAKNSLYLQMNSLRAEDTAVYYCAKDRVRLFDYWGQGTLVTVSS
VL: EIVLTQSPATLSLSPGERATLSCRASQSVSSSYLAWYQQKPGQAPRLLIYGASTRATGIPARFSGSGSGTDFTLTISRLEPEDFAVYYCQQRSNWPITFGQGTRLEIK
B2: Antibody 4 (antibody, V domains shown)
VH: QVQLVQSGAEVKKPGASVKVSCKASGYTFTSYGISWVRQAPGQGLEWMGWISAYNGNTNYAQKLQGRVTMTTDTSTSTAYMELRSLRSDDTAVYYCARSYSGSYWWFDPWGQGTLVTVSS
VL: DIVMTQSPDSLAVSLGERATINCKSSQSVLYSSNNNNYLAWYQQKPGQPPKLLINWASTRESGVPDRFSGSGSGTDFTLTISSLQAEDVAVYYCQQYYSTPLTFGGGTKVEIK
B3: Antibody 3 (antibody, V domains shown)
VH: B2 VH with Y104H
VL: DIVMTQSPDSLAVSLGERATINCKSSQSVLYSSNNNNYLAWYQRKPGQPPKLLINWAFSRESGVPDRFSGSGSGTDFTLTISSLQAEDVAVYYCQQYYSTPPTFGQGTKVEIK
B4: Antibody 1 (antibody, V domains shown)
VH: QVQLVESGGGLVKPGGSLRLSCAASGFTFSDYYMSWIRQAPGKGLEWVSYISSSGSIKKYADSVKGRFTISRDNAKNSLYLQMNSLRGEDTAVYYCARTNWHFDYWGQGTLVTVSS
VL: EIVLTQSPGTLSLSPGERATLSCRASQSVSSSYLAWYQQKPGQAPRLLIFGASTRATGIPDRFSGSGSGTDFTLTISRLEPEDVAVYYCQQYYSTPFTFGPGTKVDIK
B5: Antibody 5 (antibody, V domains shown)
VH: QVQLVESGGGLVKPGGSLRLSCAASGFTFSDYYMTWIRQAPGKGLEWVSYISISGITRYYADSVKGRFTISRDNAKNSLYLQMNSLRAEDTAVYYCARDQTGYFDYWGQGTLVTVSS
VL: DIVMTQSPATLSVSPGEKTTLSCRASQSFSSNLAWYQQKPGQAPRLLIYGASTRATGIPARFSGSGSGTEFTLTISSLQSEDFAVYYCQQYINWPHTFGQGTKVEIK

Human full length LILRB1, sequence (Q8NHL6 24-650): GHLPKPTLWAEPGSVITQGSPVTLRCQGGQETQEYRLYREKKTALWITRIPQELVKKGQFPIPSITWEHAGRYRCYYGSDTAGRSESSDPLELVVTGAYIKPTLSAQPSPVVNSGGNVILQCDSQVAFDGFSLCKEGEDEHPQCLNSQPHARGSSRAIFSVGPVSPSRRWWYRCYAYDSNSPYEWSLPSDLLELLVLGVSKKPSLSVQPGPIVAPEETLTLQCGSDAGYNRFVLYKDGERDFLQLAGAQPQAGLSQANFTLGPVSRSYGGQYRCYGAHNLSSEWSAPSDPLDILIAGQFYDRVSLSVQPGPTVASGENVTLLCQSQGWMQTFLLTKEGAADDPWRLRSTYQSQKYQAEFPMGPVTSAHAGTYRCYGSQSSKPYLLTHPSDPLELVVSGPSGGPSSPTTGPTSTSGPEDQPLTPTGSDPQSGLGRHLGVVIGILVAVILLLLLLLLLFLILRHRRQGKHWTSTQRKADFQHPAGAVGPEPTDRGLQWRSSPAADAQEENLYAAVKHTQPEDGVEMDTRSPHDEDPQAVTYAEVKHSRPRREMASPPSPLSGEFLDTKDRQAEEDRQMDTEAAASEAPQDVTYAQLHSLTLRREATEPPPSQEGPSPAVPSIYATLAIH

This test addresses Human full length LILRB1 (UniProt Q8NHL6 24-650). In words: flow cytometry, HEK293 cells overexpressing LILRB1. Background: A flow cytometer gives signals particle by particle.
What is called EC50 is the concentration at which the effect is half-maximal. The low end stands for higher potency in that assay, the high end for lower potency in that assay. The molecule B1 registered an EC50 of 0.52 nM. B2 gave an EC50 of 1.21 nM. On to B3, for which the EC50 came to 1.57 nM. The result for B4 reads 0.37 nM; that for B5, 2.24 nM.
